Data from PMC3448853.
Values belong to the substance of their own block, whether it stands above or below them.

How the values were obtained:
Experiment in all cases: SEC
[1] = target: aglycosylated human IgG1 Fc (wild type), E. coli expressed (human)
[2] = target: glycosylated human Fc (wild type), Bethyl Laboratories (human)
[3] = target: aglycosylated Fc5 (E382V/M428I) variant of human IgG1 Fc (human)

- stoichiometry N [1]: 2
Substance: aglycosylated human IgG1 Fc (wild type), E. coli expressed (domain or fragment)

- stoichiometry N [2]: 2
Substance: glycosylated human Fc (wild type), Bethyl Laboratories (domain or fragment)

- stoichiometry N [3]: 2
Substance: aglycosylated Fc5 (E382V/M428I) variant of human IgG1 Fc (domain or fragment)
